Where a chain is given by its changes, count along the chain named.
T1: human MAdCAM (human, UniProt Q13477 19-317, limits assumed)
T1 construct: also called huMAdCAM; human MAdCAM-1
T1 sequence (looked up): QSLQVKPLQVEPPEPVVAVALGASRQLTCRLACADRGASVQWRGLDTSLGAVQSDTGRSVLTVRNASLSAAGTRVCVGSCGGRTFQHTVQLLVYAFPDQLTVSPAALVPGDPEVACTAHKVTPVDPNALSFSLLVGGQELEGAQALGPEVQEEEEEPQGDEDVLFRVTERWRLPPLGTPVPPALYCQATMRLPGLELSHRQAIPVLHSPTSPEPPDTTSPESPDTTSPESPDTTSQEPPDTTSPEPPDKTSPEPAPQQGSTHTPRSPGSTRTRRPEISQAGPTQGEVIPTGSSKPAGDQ

T2: murine MAdCAM on cells (mouse, UniProt Q61826 22-405)
T2 construct: whole, on cells; also called CHO cells over-expressing murine MAdCAM; MAdCAM-1 expressing structures of mouse mesenteric lymph node
T2 sequence (looked up): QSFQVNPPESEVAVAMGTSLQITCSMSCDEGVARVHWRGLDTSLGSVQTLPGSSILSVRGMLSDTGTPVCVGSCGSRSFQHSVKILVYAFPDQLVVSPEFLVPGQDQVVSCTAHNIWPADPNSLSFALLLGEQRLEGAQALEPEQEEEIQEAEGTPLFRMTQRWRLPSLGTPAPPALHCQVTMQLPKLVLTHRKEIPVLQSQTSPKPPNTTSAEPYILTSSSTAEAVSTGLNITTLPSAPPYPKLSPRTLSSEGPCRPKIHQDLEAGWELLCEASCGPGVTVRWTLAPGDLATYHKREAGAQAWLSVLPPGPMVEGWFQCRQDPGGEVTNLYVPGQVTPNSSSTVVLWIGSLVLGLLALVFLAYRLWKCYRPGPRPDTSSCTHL

T3: human MAdCAM on CHO cells (human, UniProt Q13477 19-382)
T3 construct: whole, on cells; also called CHO cells over-expressing human MAdCAM
T3 sequence (looked up): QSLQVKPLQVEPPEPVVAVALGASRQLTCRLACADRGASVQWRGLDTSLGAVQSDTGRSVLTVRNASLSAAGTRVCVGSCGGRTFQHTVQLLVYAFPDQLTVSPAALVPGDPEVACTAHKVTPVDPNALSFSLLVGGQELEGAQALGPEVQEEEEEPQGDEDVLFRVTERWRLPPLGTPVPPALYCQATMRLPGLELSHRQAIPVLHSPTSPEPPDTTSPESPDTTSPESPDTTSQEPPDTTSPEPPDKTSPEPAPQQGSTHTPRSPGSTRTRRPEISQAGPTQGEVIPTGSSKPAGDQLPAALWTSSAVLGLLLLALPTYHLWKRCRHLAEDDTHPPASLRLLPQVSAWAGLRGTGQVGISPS

B1: MIAB151 (antibody, V domains shown)
VH: EVQLLESGGGLVQPGGSLRLSCAASGFTFSDFWMHWVRQAPGKGLEWISYISGDSGYTNYADSVKGRFTISRDNSKNTLYLQMNSLRAEDTAVYYCARDRPYYYYMDVWGKGTTVTVSS
VL: DIQMTQSPSSLSASVGDRVTITCRASQSISRSLNWYQQKPGKAPKLLIYAASSLQSGVPSRFSGSGSGTDFTLTISSLQPEDFATYYCQQYKSYPVTFGQGTKVEIK
notes: tested with human Fc
B2: MIAB170 (antibody, V domains shown)
VH: B1 VH with Y105W
VL: B1 VL with I29V, N34A
notes: tested with human Fc
B3: MIAB153 (antibody, V domains shown)
VH: B1 VH
VL: B1 VL with I29V, R31S
notes: tested with human Fc
B4: PMAB1 (bispecific antibody, human IgG1, kappa)
heavy: EVQLLESGGGLVQPGGSLRLSCAASGFTFSNSDMSWVRQAPGKGLEWVSGITISGGSTYYADSVKGRFTISRDNSKNTLYLQMNSLRAEDTAVYYCARGRGGSGWLDYWGQGTLVTVSSASTKGPSVFPLAPSSKSTSGGTAALGCLVKDYFPEPVTVSWNSGALTSGVHTFPAVLQSSGLYSLSSVVTVPSSSLGTQTYICNVNHKPSNTKVDKKVEPKSCDKTHTCPPCPAPEAAGAPSVFLFPPKPKDTLMISRTPEVTCVVVDVSHEDPEVKFNWYVDGVEVHNAKTKPREEQYNSTYRVVSVLTVLHQDWLNGKEYKCKVSNKALPAPIEKTISKAKGQPREPQVYTLPPSREEMTKNQVSLTCLVKGFYPSDIAVEWESNGQPENNYKTTPPVLDSDGSFFLYSKLTVDKSRWQQGNVFSCSVMHEALHNHYTQKSLSLSPGGGGGSGGGGSGGGGSEVQLLESGGGLVQPGGSLRLSCAASGFTFSDFWMHWVRQAPGKGLEWISYISGDSGYTNYADSVKGRFTISRDNSKNTLYLQMNSLRAEDTAVYYCARDRPYYYYMDVWGKGTTVTVSSGGGGSGGGGSGGGGSGGGGSDIQMTQSPSSLSASVGDRVTITCRASQSVSRSLAWYQQKPGKAPKLLIYAASSLQSGVPSRFSGSGSGTDFTLTISSLQPEDFATYYCQQYKSYPVTFGQGTKVEIK
light: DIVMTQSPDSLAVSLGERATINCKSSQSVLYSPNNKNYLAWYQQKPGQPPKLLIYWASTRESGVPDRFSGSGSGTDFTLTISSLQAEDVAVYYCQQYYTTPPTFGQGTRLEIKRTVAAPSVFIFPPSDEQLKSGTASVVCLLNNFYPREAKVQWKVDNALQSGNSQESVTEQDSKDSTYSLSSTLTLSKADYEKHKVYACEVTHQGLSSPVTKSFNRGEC
notes: also called parental PMAB1
B5: MIAB37 (antibody, V domains shown)
VH: EVQLLESGGGLVQPGGSLRLSCAASGFTFDDYAMHWVRQAPGKGLEWVASITSSSAFIDYADSVKGRFTISRDNSKNTLYLQMNSLRAEDTAVYYCAQERVDWNSYFDLWGQGTLVTVSS
VL: EIVMTQSPATLSVSPGERATLSCRASQGISNSYLAWYQQKPGQAPRLLIYGASTRATGIPARFSGSGSGTEFTLTISSLQSEDFAVYYCQQYYTYPPTFGQGTKVEIK
notes: tested with human Fc

Experiments:
human MAdCAM = biological target: T1, human MAdCAM; assay: BLI (Octet), binder on anti-human Fc tips
Insulin = assay: polyreactivity ELISA on insulin coat, 100 nM
Insulin, sequence (P01308 25-54, chain 1 of 2): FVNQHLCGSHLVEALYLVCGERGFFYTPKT
Insulin, sequence (P01308 90-110, chain 2 of 2): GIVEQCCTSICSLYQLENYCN
Procedure: Non-specific DNA and Insulin binding is predictive of poor pharmacokinetics (PK). An immunosorbent plate was coated with dsDNA at a concentration of 1 μg/mL or Insulin at 5 μg/mL in PBS pH 7.4, 75 ul/well, and incubated overnight at 4° C. Wells were washed with PBS pH 7.4 containing 0.05% Tween-20 (wash buffer) three times, and then blocked with 200 ul/well 1% BSA in PBS pH 7.4 (block buffer) for two hours at room temperature. After three washes with wash buffer, TAs and controls Lenzilumab and Elotuzumab were diluted to 100 nM in PBS containing 1% BSA and 0.05% Tween-20 (assay buffer). The diluted material was added to the DNA/insulin coated plate at 75 ul/well for 1 hour at room temperature. After three washes with wash buffer, a donkey anti-human FcY HRP conjugated polyclonal antibody, diluted to 1:5000 in assay buffer, was added to the plate at 75 ul/well for 1 hr at room temperature. After three washes with wash buffer and three washes with wash buffer (with no tween-20), the assay was developed with TMB, and stopped with 1N HCL. OD 450 nm was measured. The experiment included appropriate controls for non-specific binding of test articles to the plate/block in the absence of DNA or insulin.

murine MAdCAM on cells [1] = biological target: T2, murine MAdCAM on cells; assay: confocal staining of mouse mesenteric lymph node sections, 1 and 10 nM
Procedure: Fresh frozen mesenteric lymph node replicates from a 12-week BALB/c mouse were sectioned at 5 um, fixed with acetone, blocked with blockaid buffer solution for ten minutes room temperature and incubated with 1 and 10 nM titrations of test articles overnight at 4-degree Celsius. Tissues were then stained with anti-mouse MAdCAM and anti-human IgG Fc for two hours room temperature, DAPI counterstained and mounted and imaged with confocal microscopy. Clones including optimized MAdCAM (PMAB58 and PMAB18) co-localized with MAdCAM-1 expressing structures similarly to the parental clones (PMAB1 and PMAB57).

[2] = biological target: T3, human MAdCAM on CHO cells; assay: flow cytometry on CHO cells
Procedure: (§1) Parental CHO cells or CHO cells over-expressing human MAdCAM or murine MAdCAM were seeded onto wells of a 96 well plate (Corning) overnight. After washing 3 times with F12+10% FBS media, the plate was blocked for 1 hour with 5 uM whole human IgG. 10 nM parental MAdCAM-IL-2 M bi-specifics PRNT1 and PRNT2, or optimized variants MIAB12, MIAB13, MIAB25, MIAB26, MIAB37, MIAB204 and MIAB197 were captured for 1 hour. After washing 2 times with F12+10% FBS media, freshly-isolated human PBMCs were stimulated for 60 minutes with captured IL-2 MM bispecifics. Cells were then fixed for 10 minutes with BD Cytofix, permeabilized sequentially with BD Perm III, and BioLegend FOXP3 permeabilization buffer, blocked with human serum and stained for 30 minutes with antibodies against phospho-STAT5 A488, CD25 PE, FOXP3 AF647 and CD4 PerCP Cy5.5, CD3 BV421, CD56 BV785 and acquired on an Attune NXT with plate loader. […] Accordingly, PRNT1, PRNT2, MIAB1, MIAB12, MIAB13, MIAB25, MIAB26, MIAB37 MIAB204, and MIAB197 selectively activate Tregs.

murine MAdCAM on cells [3] = biological target: T2, murine MAdCAM on cells; assay: flow cytometry on CHO cells
Procedure: as §1

Binder | Kd (human MAdCAM) [µM] | koff (human MAdCAM) [s⁻¹] | kon (human MAdCAM) [M⁻¹ s⁻¹] | Insulin polyreactivity score (Insulin) | further results
B1 | 2.96 | 0.292 | 98700 | 3.63 | 
B2 |  |  |  | 4.73 | binding result (human MAdCAM): no binding (tested: 1 µM)
B3 | 8.36 | 0.543 | 64800 | 2.46 | 
B4 |  |  |  |  | binding result (murine MAdCAM on cells [1]): binds
B5 |  |  |  |  | binding result [2]: binds; binding result (murine MAdCAM on cells [3]): binds

Reference: patent publication US20240010722A1 (published 2024)
